Residue numbers refer to the chain shown, from its start.

The target of one assay is T1, 5T4 EDC-Fc (UniProt Q13641 32-355).
T1 construct: domain: EDC; Printed with molecular weight 65-120 kD; not shown: Fc part
T1 sequence (looked up): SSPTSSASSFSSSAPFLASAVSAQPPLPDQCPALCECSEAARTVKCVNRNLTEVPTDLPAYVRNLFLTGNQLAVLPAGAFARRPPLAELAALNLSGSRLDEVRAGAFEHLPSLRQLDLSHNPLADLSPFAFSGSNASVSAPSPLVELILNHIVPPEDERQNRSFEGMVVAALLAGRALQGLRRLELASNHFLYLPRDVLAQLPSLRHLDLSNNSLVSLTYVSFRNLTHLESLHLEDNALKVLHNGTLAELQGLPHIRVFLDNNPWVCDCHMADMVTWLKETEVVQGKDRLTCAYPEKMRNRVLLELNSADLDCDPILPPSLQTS
Kind of assay: SPR (Biacore), 5T4 EDC-Fc amine-coupled to CM5, antibody as analyte, 1:2 model. (In general: SPR reads the build-up and loss of mass on a sensor chip optically.)

For assay [1], the target named is T2, TPBG-His (UniProt Q13641 32-355, limits assumed).
T2 construct: probably the human protein, the same as m24; also called TPBG-His antigen; TPBG-His protein; not shown: His tag
T2 sequence (looked up): T1 sequence (looked up)
Kind of assay: SPR (Biacore 8K), antibody captured on anti-human antibody CM5 chip, TPBG-His 300 nM, 1:1 model.

The target of assay [2] is T3, mouse 5T4 antigen (TPBG-His, mouse) (mouse, UniProt Q9Z0L0 32-361, limits assumed).
T3 construct: One of the '3 different species of TPBG-His' coated in the cross reactivity ELISA; also called mouse TPBG-His; not shown: His tag
T3 sequence (looked up): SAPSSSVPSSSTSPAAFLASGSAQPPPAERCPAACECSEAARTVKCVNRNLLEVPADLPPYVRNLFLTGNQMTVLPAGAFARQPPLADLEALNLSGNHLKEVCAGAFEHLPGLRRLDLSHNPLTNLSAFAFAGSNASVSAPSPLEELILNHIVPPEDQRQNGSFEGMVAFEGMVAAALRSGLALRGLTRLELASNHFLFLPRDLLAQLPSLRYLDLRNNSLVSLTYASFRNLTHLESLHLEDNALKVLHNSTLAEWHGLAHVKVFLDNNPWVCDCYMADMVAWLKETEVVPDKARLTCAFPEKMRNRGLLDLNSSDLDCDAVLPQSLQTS
Put plainly: ELISA, TPBG-His coated at 1 ug/ml. On the technique in general: An ELISA detects its analyte on a solid surface through an enzyme-linked reagent.

Assay [3] addresses T2, TPBG-His. Kind of assay: ELISA, TPBG-His coated at 1 ug/ml, anti-human IgG Fc HRP detection.
Assay [4] deals with T2, TPBG-His. Put plainly: SPR (Biacore), TPBG-His amine-coupled to CM5, antibody as analyte, 1:1 model.

B1: antibody B5 (antibody, V domains shown)
VH: EVQLVESGGGLVKPGGSLKLSCAASGFTFRNYAMSWVRQSPDKRLEWVAEISTGGSYTYYPDTVTGRFTISRDNAKNTLYLEMSSLRSEDTAMYYCAFYYYGSSYSMDYWGQGTSVTVSS
VL: DIQMTQTTSSLSASLGDRVTISCRASQDISNYLNWYQQKPDGTVKLLIYHTSILHSGVPSRFSGSGSGTDYSLTISNLEQEDIATYFCQQGDTVPLTFGAGTKLELK
notes: Monoclonal antibody from hybridoma of immunized BALB/c mice
Usually Kd stands for a measure of binding affinity in units of concentration. High values mean weaker binding, low ones tighter binding. Broadly, the koff is the rate constant with which the complex falls apart. A high value points to fast dissociation. Broadly, the kon is the second-order rate constant of association. In the assay with 5T4 EDC-Fc, B1 showed a Kd of 0.018 nM, a koff of 1.45e-05 s⁻¹ and an on-rate (kon) of 803000 M⁻¹ s⁻¹.

B2: hB5-2-12 (antibody, human IgG1, kappa)
heavy: not shown
light: DIQMTQSPSSLSASVGDRVTISCRASQDISNYLNWYQQKPGKAPKLLIYHTSILHSGVPSRFSGSGSGTDYSLTISSLQPEDFATYFCQQGDTVPLTFGGGTKVEIKRTVAAPSVFIFPPSDEQLKSGTASVVCLLNNFYPREAKVQWKVDNALQSGNSQESVTEQDSKDSTYSLSSTLTLSKADYEKHKVYACEVTHQGLSSPVTKSFNRGEC
notes: Humanized IgG1 kappa
In the assay with TPBG-His [1], B2 displayed a Kd of 0.785 nM, a koff of 0.000298 s⁻¹ and a kon of 380000 M⁻¹ s⁻¹.

B3: hB5-2-20 (antibody, human IgG1, kappa)
heavy: not shown
light: B2 light
notes: Humanized IgG1 kappa
Turning to B3, in the assay with TPBG-His [1], the Kd came to 0.95 nM, the off-rate constant (koff) is 0.000302 s⁻¹ and the on-rate (kon) came to 318000 M⁻¹ s⁻¹.

B4: hB5-2-3 (antibody, human IgG1, kappa, V domains shown)
VH: EVQLVESGGGLVQPGGSLRLSCAASGFTFRNYAMSWVRQAPGKGLEWVAEISTGGSYTYYPDTVTGRFTISRDNAKNSLYLQMNSLRAEDTAVYYCAFYYYGSSYSMDYWGQGTLVTVSS
VL: DIQMTQTTSSLSASVGDRVTISCRASQDISNYLNWFQQKPGKAPKSLIYHTSILHSGVPSKFSGSGSGTDYSLTISSLQPEDFATYFCQQGDTVPLTFGGGTKVEIKR
notes: Humanized IgG1 kappa
In the assay with TPBG-His [1], B4 returned an equilibrium dissociation constant (Kd) of 1.87 nM, a koff of 0.000681 s⁻¹ and an on-rate constant (kon) of 364000 M⁻¹ s⁻¹.

B5: hB5-2-4 (antibody, human IgG1, kappa, V domains shown)
VH: B4 VH
VL: B4 VL with T7S, T8P, F36Y, S46L, K61R
notes: Humanized IgG1 kappa
In the assay with TPBG-His [1], B5 came in with an equilibrium dissociation constant (Kd) of 0.845 nM, an off-rate constant (koff) of 0.000298 s⁻¹ and an association rate constant (kon) of 353000 M⁻¹ s⁻¹.

B6: hB5-2-10 (antibody, human IgG1, kappa)
heavy: not shown
light: B2 light with A43V, F83V
notes: Humanized IgG1 kappa; also called humanized antibody hB5-2-10
As a reminder, the EC50 is the concentration needed to bring the measured effect to its halfway point. For the molecule B6, the binding result in assay [2] is recorded as “no binding (tested: highest concentration tested 20000 ng/ml)”. Also, the 50% effective concentration (EC50) with TPBG-His [3] worked out at 2.8 ng/mL. In the assay with TPBG-His [4], this molecule had a Kd of 2.92 nM, a koff of 0.000627 s⁻¹ and an association rate constant (kon) of 215000 M⁻¹ s⁻¹. For the same molecule, in the assay with TPBG-His [1], the affinity, expressed as Kd, was 2.31 nM; the off-rate (koff) stood at 0.000487 s⁻¹; the kon was determined as 211000 M⁻¹ s⁻¹.

B7: hB5-2-1 (antibody, human IgG1, kappa, V domains shown)
VH: B4 VH
VL: B4 VL with T7S, T8P, F36Y, S46L, K61R, F83I
notes: Humanized IgG1 kappa
B7: in the assay with TPBG-His [1], the dissociation constant Kd was determined as 1.11 nM, the dissociation rate constant (koff) was determined as 0.000388 s⁻¹ and the kon was 351000 M⁻¹ s⁻¹.

B8: hB5-2-13 (antibody, human IgG1, kappa, V domains shown)
VH: B4 VH with L11V, G16R, A75S, S78T, N84S
VL: B4 VL with T7S, T8P, F36Y, S46L, K61R, F83I
notes: Humanized IgG1 kappa
Take B8: in the assay with TPBG-His [1], the Kd was determined as 0.721 nM, the off-rate (koff) came out at 0.000313 s⁻¹ and the on-rate constant (kon) is 434000 M⁻¹ s⁻¹.

B9: hB5-2-2 (antibody, human IgG1, kappa, V domains shown)
VH: B4 VH
VL: B4 VL with T7S, T8P, F36Y, A43V, S46L, K61R, F83V
notes: Humanized IgG1 kappa
In the case of B9, in the assay with TPBG-His [1], the equilibrium dissociation constant (Kd) was 2.36 nM, the koff came out at 0.000527 s⁻¹ and the kon turned out to be 223000 M⁻¹ s⁻¹.

B10: hB5-2-9 (antibody, human IgG1, kappa)
heavy: not shown
light: B2 light with F83I
notes: Humanized IgG1 kappa
As to B10, in the assay with TPBG-His [1], the Kd was 0.927 nM, the off-rate constant (koff) came to 0.000278 s⁻¹ and the kon is 299000 M⁻¹ s⁻¹.

B11: hB5-2-5 (antibody, human IgG1, kappa, V domains shown)
VH: B4 VH with A75S, S78T
VL: B4 VL with T7S, T8P, F36Y, S46L, K61R, F83I
notes: Humanized IgG1 kappa
Take B11: in the assay with TPBG-His [1], the affinity, expressed as Kd, was 0.827 nM; the off-rate constant (koff) stood at 0.000279 s⁻¹; the kon is 337000 M⁻¹ s⁻¹.

B12: hB5-2-16 (antibody, human IgG1, kappa, V domains shown)
VH: B4 VH with L11V, G16R, A75S, S78T, N84S
VL: B4 VL with T7S, T8P, F36Y, S46L, K61R
notes: Humanized IgG1 kappa
Turning to B12, in the assay with TPBG-His [1], the affinity, expressed as Kd, was 0.634 nM; the koff is 0.000347 s⁻¹; the association rate constant (kon) was 547000 M⁻¹ s⁻¹.

B13: hB5-2-7 (antibody, human IgG1, kappa, V domains shown)
VH: B4 VH with A75S, S78T
VL: B4 VL
notes: Humanized IgG1 kappa
In the assay with TPBG-His [1], B13 yielded a dissociation constant Kd of 0.869 nM, a koff of 0.000342 s⁻¹ and a kon of 393000 M⁻¹ s⁻¹.

B14: hB5-2-14 (antibody, human IgG1, kappa, V domains shown)
VH: B4 VH with L11V, G16R, A75S, S78T, N84S
VL: B4 VL with T7S, T8P, F36Y, A43V, S46L, K61R, F83V
notes: Humanized IgG1 kappa
In the assay with TPBG-His [1], B14 gave a Kd of 1.74 nM, a dissociation rate constant (koff) of 0.000774 s⁻¹ and an on-rate constant (kon) of 445000 M⁻¹ s⁻¹.

B15: hB5-2-6 (antibody, human IgG1, kappa, V domains shown)
VH: B4 VH with A75S, S78T
VL: B4 VL with T7S, T8P, F36Y, A43V, S46L, K61R, F83V
notes: Humanized IgG1 kappa
In the assay with TPBG-His [1], B15 yielded a Kd of 1.53 nM, a koff of 0.000497 s⁻¹ and an association rate constant (kon) of 326000 M⁻¹ s⁻¹.

B16: hB5-2-18 (antibody, human IgG1, kappa)
heavy: not shown
light: B2 light with A43V, F83V
notes: Humanized IgG1 kappa
Turning to B16, in the assay with TPBG-His [1], the Kd came out at 2.07 nM, the koff came out at 0.00061 s⁻¹ and the kon is 294000 M⁻¹ s⁻¹.

B17: hB5-2-19 (antibody, human IgG1, kappa)
heavy: not shown
light: B2 light with S7T, P8T, Y36F, L46S, R61K
notes: Humanized IgG1 kappa
For the molecule B17, in the assay with TPBG-His [1], binding was characterised by a dissociation constant (Kd) of 0.88 nM, the koff was determined as 0.000348 s⁻¹ and the kon turned out to be 396000 M⁻¹ s⁻¹.

B18: hB5-2-11 (antibody, human IgG1, kappa)
heavy: not shown
light: B2 light with S7T, P8T, Y36F, L46S, R61K
notes: Humanized IgG1 kappa
In the case of B18, in the assay with TPBG-His [1], the Kd turned out to be 1.39 nM, the koff amounted to 0.000431 s⁻¹ and the kon turned out to be 310000 M⁻¹ s⁻¹.

B19: hB5-2-15 (antibody, human IgG1, kappa, V domains shown)
VH: B4 VH with L11V, G16R, A75S, S78T, N84S
VL: B4 VL
notes: Humanized IgG1 kappa
For B19, in the assay with TPBG-His [1], binding was put at a Kd of 1.95 nM, the koff is 0.000632 s⁻¹ and the on-rate constant (kon) was determined as 324000 M⁻¹ s⁻¹.

B20: hB5-2-17 (antibody, human IgG1, kappa)
heavy: not shown
light: B2 light with F83I
notes: Humanized IgG1 kappa
In the assay with TPBG-His [1], B20 displayed a dissociation constant (Kd) of 0.902 nM, a koff of 0.000317 s⁻¹ and a kon of 351000 M⁻¹ s⁻¹.

B21: hB5-2-8 (antibody, human IgG1, kappa, V domains shown)
VH: B4 VH with A75S, S78T
VL: B4 VL with T7S, T8P, F36Y, S46L, K61R
notes: Humanized IgG1 kappa
Regarding B21, in the assay with TPBG-His [1], the Kd is 0.95 nM, the koff was found to be 0.000302 s⁻¹ and the kon stood at 318000 M⁻¹ s⁻¹.

For the origin of these results see EP4692126A1 (Sound Biopharmaceuticals Co. Ltd., dated 2026).
